The results in this text go back to patent publication US20190367586A1 (VANDERBILT UNIVERSITY, published 2019).

The target of assay [1] is T1, RSV strain A2 pre-fusion F protein (SC-TM) (human respiratory syncytial virus …, UniProt P03420 26-513).
T1 construct: not shown: fold-on trimerization domain and polyhistidine tag
In words: ELISA, F protein coated. (ELISA stands for enzyme-linked immunosorbent assay.)

The target of assay [2] is F protein of RSV strain A2 (infectious virus) (human respiratory syncytial virus …, UniProt P03420 26-574). Kind of assay: cell-based or functional assay.
Assay [3] addresses F protein of RSV strain Long (infectious virus) (human respiratory syncytial virus …, UniProt P12568 26-574). Kind of assay: cell-based or functional assay.
For assay [4], the target named is F protein of RSV strain 18537 B (infectious virus) (human respiratory syncytial virus …, UniProt P13843 26-574). In words: cell-based or functional assay.
Assay [5] concerns the target T2, RSV strain 18537 post-fusion F (human respiratory syncytial virus …, UniProt P13843 26-109; P13843 137-524).
T2 construct: extracellular domain; also called RSV B 18537 (post)
In words: ELISA, F protein coated.

The target of assay [6] is RSV strain A2 pre-fusion F protein (SC-TM) (human respiratory syncytial virus …, UniProt P03420 26-513). Kind of assay: ELISA, F protein coated.
Assay [7] concerns the target T3, RSV strain A2 post-fusion F (human respiratory syncytial virus …, UniProt P03420 26-109; P03420 137-524).
T3 construct: extracellular domain
In words: ELISA, F protein coated.

The target of assay [8] is F protein of RSV strain A2 (infectious virus) (human respiratory syncytial virus …, UniProt P03420 26-574). Kind of assay: cell-based or functional assay. The source holds these as a separate data set.

Numbering of substitutions follows the chain as printed.

B1: hRSV90 (antibody, V domains shown)
VH: EVQLVESGGGLVQPRRSLRLSCAASGFTFDDYTIHWVRQAPGKGLEWVSGITWNSGYIGYADSVKGRFTISRDNARNSLYLQMNSLRAEDTALYYCVRDAYVSGSDYYYYGLDVWGRGTLVTVSS
VL: EIVMTSSPATLSVSPGERATLFCRASQSVISNLAWYQQKSGQAPRLLIYGASTRATGIPARFSGSGSGTEFTLTISSLQSEDFAVYFCQQYNNWPLTFGGGTQVNVQ
notes: also called mAb hRSV90
On to B1, for which it took 0.028 mg/L to reach a half-maximal effect in assay [1] (EC50). Moreover, the “Neutralization IC50, plaque-reduction assay” value in assay [2] was determined as 0.015 mg/L; in assay [3] it was 0.035 mg/L; in assay [4], 0.045 mg/L.

B2: hRSV75 (antibody, V domains shown)
VH: EVQLVESGGGLVKPGGSLRLSCAASGFTFRSYSMNWVRQAPGKGLEWVSSITSSSSYIDYADSVKGRFTISRDNAKNSLYLQMNSLRAEDTAVYYCARAYCGGDCSVDHFQHWGQGTLVTVSS
VL: QSVLTQPPSVSGAPGQRVTISCTGSSSNIGAGYDVHWYQHLPGTAPKLLIYVNSNRPSGVPDRFSASKSGTSASLAITGLQAEDEADYYCQSYDKSLSGFYVFGTGTKVTVL
With B2, the response in assay [1] was half-maximal at 0.044 mg/L (EC50). The “Neutralization IC50, plaque-reduction assay” value in assay [2] came out at 0.129 mg/L; in assay [3], 0.019 mg/L; in assay [4] it was 0.062 mg/L.

B3: hRSV106 (antibody, V domains shown)
VH: QITLKESGPTLVKPTQTLTLTCTFSGFSLTTRGVGVAWIRQPPGKALEWLALIYWDDDKRYRSSPKGRLTITKDNSKNQVVLIMTNMDPVDTATYYCAHAMDDSGSYYVGLSKDPHFDSWGHGTLVTVSS
VL: SYELTQPPSVSVSPGQTASITCSGDVLFNKFASWYQQKPGQSPVLVIYQDSKRPSGIPERFSGSNSGNTATLTIRGTQAMDEADYYCQARGSTAAHVIFGGGTKVTVL
For B3, a half-maximal effect in assay [1] (EC50) was put at 0.046 mg/L. Moreover, the “Neutralization IC50, plaque-reduction assay” value in assay [2] came to 0.451 mg/L; in assay [3], 0.043 mg/L; in assay [4], 0.114 mg/L.

B4: hRSV139 (antibody, V domains shown)
VH: QVQLVQSGAEVKKPGASVKVSCKASGYVFSNYGISWVRQAPGQGLEWMGWISAYNGNTEFAQKFQGRITMTTDTSTNTAYLEVRGLRSDDTAVYYCSRQSGVSGVPEFQDWGQGTLVTVSS
VL: QAVVTQSPLSLPVTLGQPASISCRSSQSLVYSNGDTYLSWFQQRPGQSPRRLIYKVSNRDSGVPDRFSASGSGTDFTLKISRVEAEDVGVYYCMQGTHWPPPTFGQGTRLEIK
In the case of B4, the response in assay [1] was half-maximal at 0.04 mg/L (EC50). Moreover, the entries for the “Neutralization IC50, plaque-reduction assay” value in assay [2], in assay [3] and in assay [4] were 0.621 mg/L, 0.07 mg/L and 0.216 mg/L, respectively.

B5: motavizumab (antibody, V domains shown)
VH: QVTLRESGPALVKPTQTLTLTCTFSGFSLSTAGMSVGWIRQPPGKALEWLADIWWDDKKHYNPSLKDRLTISKDTSKNQVVLKVTNMDPADTATYYCARDMIFNFYFDVWGQGTTVTVSS
VL: DIQMTQSPSTLSASVGDRVTITCSASSRVGYMHWYQQKPGKAPKLLIYDTSKLASGVPSRFSGSGSGTEFTLTISSLQPDDFATYYCFQGSGYPFTFGGGTKVEIK
For B5, the concentration for a half-maximal effect (EC50) (commonly the concentration needed to bring the measured effect to its halfway point) in assay [5] came to 0.084 mg/L; in assay [6], 0.017 mg/L; in assay [7], 0.083 mg/L. The entries for the “Neutralization IC50, plaque-reduction assay” value in assay [3], in assay [8] and in assay [4] were 0.009 mg/L, 0.123 mg/L and 0.091 mg/L, respectively.

B6: palivizumab (antibody, V domains shown)
VH: B5 VH with A32S, H60D, D67S, D100S, F103T, F105W, Q112A
VL: B5 VL with S24K, A25C, S26Q, S27L, R28S, V103L
For the molecule B6, the figures for the EC50 in assay [5] and in assay [7] were 0.081 mg/L and 0.024 mg/L, respectively. In addition, the “Neutralization IC50, plaque-reduction assay” value stood at 0.212 mg/L in assay [3], 11 mg/L in assay [8] and 1.27 mg/L in assay [4].

B7: AM14 (antibody, V domains shown)
VH: EVQLVESGGGVVQPGRSLRLSCAASGFSFSHYAMHWVRQAPGKGLEWVAVISYDGENTYYADSVKGRFSISRDNSKNTVSLQMNSLRPEDTALYYCARDRIVDDYYYYGMDVWGQGATVTVSS
VL: DIQMTQSPSSLSASVGDRVTITCQASQDIKKYLNWYHQKPGKVPELLMHDASNLETGVPSRFSGRGSGTDFTLTISSLQPEDIGTYYCQQYDNLPPLTFGGGTKVEIKR
For the molecule B7, in assay [5], the concentration giving a half-maximal response (EC50) amounted to 0.198 mg/L. Also, the “Neutralization IC50, plaque-reduction assay” value in assay [3] stood at 0.043 mg/L.

B8: hRSV97 (antibody, V domains shown)
VH: EVQLVESGGTLVQPGRSLRLSCAASGFNFEEYAMHWVRQVPGKGLEWVARINWNGGIIGYADSVKGRFTISRDNAKKSLYLQMNSLRTDDSALYYCGKDVFWAVAGTGGPIDSWGQGTLVTVSS
VL: DIVMTQSPSSLSASIGDRVTISCRASRDISNYLAWYQQKSGKVPKLLIYAASTLESGVPSRFSGSGSGTDFTLTISSLQPEDVATYYCQNYNSAQMCSFGQGPSLEIK
On to B8, for which the EC50 in assay [1] amounted to 0.053 mg/L. Besides, the figures for the “Neutralization IC50, plaque-reduction assay” value in assay [2], in assay [3] and in assay [4] were 2.23 mg/L, 0.106 mg/L and 0.065 mg/L, respectively.

B9: hRSV61 (antibody, V domains shown)
VH: QVQLVQSGAELKKPGASVKVSCKASGYTFTNHGITWVRQAPGQGLEWMSWISGYNGNTQYAQKFQGRVTMTTDTSTRTAYMELRSLTSDDTAVYYCARDNGVVVGPPDYWGQGTLVTVSS
VL: DIQMTQSPSTLSASVGDRVTISCRASQSISSWLAWYQQKPGKPPKLLIYKASGLQTGVPSRFSGSGSGTEFTLTISSLQPDDFATYYCQYYHSLSAFGQGTKVEIK
On to B9, for which it took 0.027 mg/L to reach a half-maximal effect in assay [1] (EC50). For the same molecule, the figures for the “Neutralization IC50, plaque-reduction assay” value in assay [2], in assay [3] and in assay [4] were 0.276 mg/L, 0.054 mg/L and 0.09 mg/L, respectively.

B10: hRSV7 (antibody, V domains shown)
VH: EVQLVESGGGLVQPGGSLRLSCAASGFTFRNYAMSWVRQAPGKGLEWVSDISSGGDTTYYAESLKGRITISRDNSKNTLYLQMNSLRAEDAAIYFCAKHLLSPMYVNTDVFPDWYFEIWGRGTLVTVSS
VL: SYELTQPPSVSVSPGQTARITCSGDGLPKKYAYWYQQKSGQAPVLVIYDDSKRPSGIPERFSGTSSGTMATLIISGAQVEDEADYYCYSRHNSAYQRVFGAGTQLTVL
B10: the “Neutralization IC50, plaque-reduction assay” value worked out at 1.33 mg/L in assay [2], 0.062 mg/L in assay [3] and 0.022 mg/L in assay [4].

B11: D25 (antibody, V domains shown)
VH: QVQLVQSGAEVKKPGSSVMVSCQASGGPLRNYIINWLRQAPGQGPEWMGGIIPVLGTVHYAPKFQGRVTITADESTDTAYIHLISLRSEDTAMYYCATETALVVSTTYLPHYFDNWGQGTLVTVSS
VL: DIQMTQSPSSLSAAVGDRVTITCQASQDIVNYLNWYQQKPGKAPKLLIYVASNLETGVPSRFSGSGSGTDFSLTISSLQPEDVATYYCQQYDNLPLTFGGGTKVEIKR
Regarding B11, the “Neutralization IC50, plaque-reduction assay” value in assay [3] was 0.009 mg/L; in assay [4], greater than 1 mg/L.

B12: hRSV12 (antibody, V domains shown)
VH: QVQLVQSGAEVKKPGTSVRVSCKTSGYNFMNYGIYWVRQAPGQGLEWVGWISAYNGQTDRAQKFQGRVTMTTDISTNTGYMDLRSLRSDDTAVYFCARGPPVIAAVSLEYWGRGTLVTVSS
VL: EVVMTQSPLSLPVTLGQPASISCKSSQSLVHSNGDTYLNWFQQRPGQSPRRLIYKVSNRDSGVPDRFSGSGSGTDFTLKISRVETEDVGVYYCMQATHWPGSFGQGTKLEIK
Consider B12, for which the EC50 was 0.028 mg/L in assay [1] and 0.285 mg/L in assay [7]. The “Neutralization IC50, plaque-reduction assay” value in assay [2] stood at 0.141 mg/L; in assay [3], 0.016 mg/L; in assay [4] it was 0.443 mg/L.

B13: hRSV20 (antibody, V domains shown)
VH: QVQLVESGGGLVQPGRSLRLSCAASGFTFDDYAMHWVRQAPGRGLEWVSGISWNSGIAVYADSVKGRFTISRDNAKKSLYLQINSLRAEDTALYYCVKDNYASGSYSSYYYYYGLDLWGQGTLVTVSS
VL: EIVMTQSPATLSVSPGERATLSCRASQSIISNLAWYQQKPGQAPRLLIYGVSTRATGIPARFSGSGSDTEFTLSISSLQSEDFAVYYCQQYNNWPITFGQGTRLEIK
As to B13, the “Neutralization IC50, plaque-reduction assay” value in assay [2] amounted to 0.034 mg/L; in assay [3], 0.014 mg/L; in assay [4] it was 0.114 mg/L.

B14: hRSV141 (antibody, V domains shown)
VH: QVQLVQSGAEVKKPGASVKVSCKASGYTFTNYYMHWVRQAPGQGLEWMGWINPNRGGTNYAQKFQGRVTMTLDTSISTAYIELSRLRSDDTAVYYCARDLTLGTDYWGQGTLVTVSS
VL: QAVVTQPASVFGFPGQSITISCTGTSSDVGGYNYVSWYQQRPGKAPKLMIYEVSNRPSGVSNRFSGSKSGNTASLTISGLQAEDEADYYCNSYTSSNSYVFGTGTKVTVL
Take B14: the EC50 in assay [1] was determined as 0.029 mg/L. The “Neutralization IC50, plaque-reduction assay” value amounted to 0.626 mg/L in assay [2], 0.028 mg/L in assay [3] and 0.053 mg/L in assay [4].
